Each block holds one substance with its values, some of them ahead of it.
Assays:
[1] = molecular target: human FcγRIIb on stably transfected IIA1.6 cells (human) (UniProt P31994); assay: flow cytometry on IIA1.6 cells with human FcγRIIb, maximum binding at 10 µg/ml
[2] = molecular target: human FcγRIIa on stably transfected IIA1.6 cells (human) (UniProt P12318); assay: flow cytometry on IIA1.6 cells with human FcγRIIa, maximum binding at 10 µg/ml
[3] = molecular target: complement factor C1q (recombinant C1q) (human) (UniProt P02745); assay: ELISA; coated antibody, recombinant C1q, maximum binding at 10 µg/ml
Sequence of complement factor C1q (recombinant C1q) (human) (P02745 23-245 limits assumed, chain 1 of 3): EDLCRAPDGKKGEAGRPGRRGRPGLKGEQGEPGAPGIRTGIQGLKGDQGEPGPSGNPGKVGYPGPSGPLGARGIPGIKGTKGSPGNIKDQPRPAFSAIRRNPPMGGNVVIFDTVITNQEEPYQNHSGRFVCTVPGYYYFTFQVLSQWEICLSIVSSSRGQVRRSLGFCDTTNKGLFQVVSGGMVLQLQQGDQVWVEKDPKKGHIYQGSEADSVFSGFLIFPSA
Sequence of complement factor C1q (recombinant C1q) (human) (P02746 28-253 limits assumed, chain 2 of 3, further chain): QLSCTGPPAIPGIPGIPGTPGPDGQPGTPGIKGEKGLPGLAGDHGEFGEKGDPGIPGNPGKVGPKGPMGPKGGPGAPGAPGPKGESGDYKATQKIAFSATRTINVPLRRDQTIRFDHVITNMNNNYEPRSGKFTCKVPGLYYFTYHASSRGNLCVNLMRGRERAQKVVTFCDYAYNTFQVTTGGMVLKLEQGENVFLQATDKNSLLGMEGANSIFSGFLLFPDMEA
Sequence of complement factor C1q (recombinant C1q) (human) (P02747 29-245 limits assumed, chain 3 of 3, further chain): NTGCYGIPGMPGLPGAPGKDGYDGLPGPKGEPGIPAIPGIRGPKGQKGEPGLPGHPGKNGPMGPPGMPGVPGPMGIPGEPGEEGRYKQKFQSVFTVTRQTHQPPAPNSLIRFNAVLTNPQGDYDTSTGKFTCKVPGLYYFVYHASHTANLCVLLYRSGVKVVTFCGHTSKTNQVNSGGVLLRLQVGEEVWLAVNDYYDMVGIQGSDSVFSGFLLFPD

[4] = molecular target: activated C3c (generated via activation of C3, from human pooled serum) (human) (UniProt P01024); assay: cell-based or functional assay
Sequence of activated C3c (generated via activation of C3, from human pooled serum) (human) (P01024 23-1663 limits assumed): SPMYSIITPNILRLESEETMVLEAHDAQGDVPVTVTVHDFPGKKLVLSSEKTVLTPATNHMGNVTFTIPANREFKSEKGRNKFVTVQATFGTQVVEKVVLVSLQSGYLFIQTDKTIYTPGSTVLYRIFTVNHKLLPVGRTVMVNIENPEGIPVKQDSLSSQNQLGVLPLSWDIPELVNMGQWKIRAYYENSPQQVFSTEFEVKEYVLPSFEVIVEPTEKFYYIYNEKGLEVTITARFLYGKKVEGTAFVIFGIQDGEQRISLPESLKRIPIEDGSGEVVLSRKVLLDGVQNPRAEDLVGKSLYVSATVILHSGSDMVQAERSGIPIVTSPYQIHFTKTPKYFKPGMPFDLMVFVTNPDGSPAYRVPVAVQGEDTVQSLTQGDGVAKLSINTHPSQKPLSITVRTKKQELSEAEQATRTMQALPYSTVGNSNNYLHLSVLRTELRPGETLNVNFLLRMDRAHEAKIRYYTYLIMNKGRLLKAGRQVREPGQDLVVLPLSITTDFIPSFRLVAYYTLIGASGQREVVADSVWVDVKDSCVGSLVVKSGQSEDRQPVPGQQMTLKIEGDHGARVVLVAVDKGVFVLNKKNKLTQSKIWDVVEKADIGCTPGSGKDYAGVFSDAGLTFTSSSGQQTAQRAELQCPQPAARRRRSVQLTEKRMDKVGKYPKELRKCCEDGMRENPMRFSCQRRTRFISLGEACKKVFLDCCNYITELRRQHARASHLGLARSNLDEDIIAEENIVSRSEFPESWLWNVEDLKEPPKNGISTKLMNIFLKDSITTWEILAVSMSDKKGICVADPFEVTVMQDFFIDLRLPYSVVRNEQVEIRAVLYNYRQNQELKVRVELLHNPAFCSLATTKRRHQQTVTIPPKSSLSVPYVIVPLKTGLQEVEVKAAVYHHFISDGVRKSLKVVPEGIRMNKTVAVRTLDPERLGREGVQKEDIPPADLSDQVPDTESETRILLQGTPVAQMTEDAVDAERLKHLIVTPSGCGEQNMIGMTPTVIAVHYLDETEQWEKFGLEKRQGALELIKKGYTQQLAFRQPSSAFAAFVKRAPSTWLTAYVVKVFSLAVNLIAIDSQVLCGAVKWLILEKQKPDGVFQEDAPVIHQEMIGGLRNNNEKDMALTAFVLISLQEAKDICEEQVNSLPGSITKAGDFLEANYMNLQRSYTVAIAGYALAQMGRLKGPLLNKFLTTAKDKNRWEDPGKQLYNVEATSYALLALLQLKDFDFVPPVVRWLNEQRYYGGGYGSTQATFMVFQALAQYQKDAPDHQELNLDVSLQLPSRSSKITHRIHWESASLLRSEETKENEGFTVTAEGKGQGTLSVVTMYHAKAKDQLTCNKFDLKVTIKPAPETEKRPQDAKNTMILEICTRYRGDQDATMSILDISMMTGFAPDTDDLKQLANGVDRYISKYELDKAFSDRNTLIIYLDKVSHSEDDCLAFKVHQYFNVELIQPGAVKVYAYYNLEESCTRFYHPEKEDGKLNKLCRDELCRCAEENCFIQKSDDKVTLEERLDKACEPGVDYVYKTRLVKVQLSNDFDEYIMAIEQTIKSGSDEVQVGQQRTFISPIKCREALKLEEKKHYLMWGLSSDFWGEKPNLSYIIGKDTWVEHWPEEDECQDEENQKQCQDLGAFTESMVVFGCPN

[5] = molecular target: human OX40L expressed on cells (K562-hOX40L cells; HUVEC) (human) (UniProt P23510); assay: blocking FACS on K562_OX40L cells: antibody as competitor, blocked ligand Dig-labelled hOX40:hFc, read with anti-digoxigenin-fluorescein
Sequence of human OX40L expressed on cells (K562-hOX40L cells; HUVEC) (human) (P23510 whole entry, the tested form may be a part): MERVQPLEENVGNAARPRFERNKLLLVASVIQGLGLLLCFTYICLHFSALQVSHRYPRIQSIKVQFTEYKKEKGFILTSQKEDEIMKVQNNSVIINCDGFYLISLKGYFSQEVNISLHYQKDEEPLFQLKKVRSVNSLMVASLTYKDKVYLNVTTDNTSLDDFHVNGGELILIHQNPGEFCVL

[6] = molecular target: human OX40L expressed on cells (K562-hOX40L cells; HUVEC) (human) (UniProt P23510); assay: FACS on HUVEC; <KLH> 2.5 h, then staining with TAG-34, secondary anti-murine IgG-Alexa488
[7] = molecular target: human OX40L expressed on cells (K562-hOX40L cells; HUVEC) (human) (UniProt P23510); assay: FACS on HUVEC; TAG-34 10 µg/ml 2.5 h, no restaining, secondary anti-murine IgG-Alexa488 (down-modulation of hOX40L)
[8] = molecular target: human OX40L expressed on cells (K562-hOX40L cells; HUVEC) (human) (UniProt P23510); assay: FACS on HUVEC; media control 24 h, then staining with TAG-34, secondary anti-murine IgG-Alexa488
[9] = molecular target: human OX40L expressed on cells (K562-hOX40L cells; HUVEC) (human) (UniProt P23510); assay: FACS on HUVEC; TAG34 10 µg/ml 24 h, restaining with TAG-34, secondary anti-murine IgG-Alexa488 (down-modulation of hOX40L)
[10] = molecular target: human OX40L expressed on cells (K562-hOX40L cells; HUVEC) (human) (UniProt P23510); assay: FACS on HUVEC; media control 2.5 h, then staining with TAG-34, secondary anti-murine IgG-Alexa488
[11] = molecular target: Recombinant soluble human OX40L fused to a Histidine tag (human) (UniProt P23510); assay: SPR competition; hOX40L-His (10 nM) preincubated with antibody (0.78-100 nM), injected over immobilized OX40-hFc
Sequence of Recombinant soluble human OX40L fused to a Histidine tag (human) (P23510 51-183): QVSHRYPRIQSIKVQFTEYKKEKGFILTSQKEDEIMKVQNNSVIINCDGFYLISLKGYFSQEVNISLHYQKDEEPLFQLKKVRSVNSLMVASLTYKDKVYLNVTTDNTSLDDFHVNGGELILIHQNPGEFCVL

[12] = molecular target: Recombinant soluble human OX40L fused to a Histidine tag (human) (UniProt P23510); assay: SPR, Biacore 3000; antibody captured via anti-Fcγ on CM5, hOX40L-His as analyte, 1:1 Langmuir fit
[13] = molecular target: human OX40L expressed on cells (K562-hOX40L cells; HUVEC) (human) (UniProt P23510); assay: cell-based or functional assay
[14] = molecular target: human OX40L expressed on cells (K562-hOX40L cells; HUVEC) (human) (UniProt P23510); assay: FACS on HUVEC; TAG-34 10 µg/ml 24 h, no restaining, secondary anti-murine IgG-Alexa488 (down-modulation of hOX40L)
[15] = molecular target: human OX40L expressed on cells (K562-hOX40L cells; HUVEC) (human) (UniProt P23510); assay: FACS on HUVEC; <KLH> 24 h, then staining with TAG-34, secondary anti-murine IgG-Alexa488
[16] = molecular target: human OX40L expressed on cells (K562-hOX40L cells; HUVEC) (human) (UniProt P23510); assay: flow cytometry on K562-hOX40L cells, FITC rabbit anti-mouse IgG
[17] = molecular target: human OX40L expressed on cells (K562-hOX40L cells; HUVEC) (human) (UniProt P23510); assay: FACS on HUVEC; TAG34 10 µg/ml 2.5 h, restaining with TAG-34, secondary anti-murine IgG-Alexa488 (down-modulation of hOX40L)
[18] = molecular target: complement factor C1q (recombinant C1q) (human) (UniProt P02745); assay: ELISA; plate coated with serially diluted antibody, recombinant C1q added, anti-C1q detection
[19] = molecular target: human OX40L expressed on cells (K562-hOX40L cells; HUVEC) (human) (UniProt P23510); assay: FACS on HUVEC; <KLH> 10 µg/ml 24 h, no staining antibody, secondary anti-human IgG-Alexa488 (media control 5.39)
[20] = molecular target: human OX40L expressed on cells (K562-hOX40L cells; HUVEC) (human) (UniProt P23510); assay: FACS on HUVEC; <KLH> 10 µg/ml 2.5 h, no staining antibody, secondary anti-human IgG-Alexa488 (media control 5.17)

Sequence of human FcγRIIb on stably transfected IIA1.6 cells (human) (P31994 43-310): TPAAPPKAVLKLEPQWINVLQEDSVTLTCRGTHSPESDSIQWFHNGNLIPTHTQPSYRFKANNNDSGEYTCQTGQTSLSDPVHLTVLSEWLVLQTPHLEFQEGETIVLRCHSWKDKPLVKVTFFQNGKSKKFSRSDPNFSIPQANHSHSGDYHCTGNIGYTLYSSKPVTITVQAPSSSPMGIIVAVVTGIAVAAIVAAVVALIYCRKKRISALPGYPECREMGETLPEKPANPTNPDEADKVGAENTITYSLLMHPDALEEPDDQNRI
Sequence of human FcγRIIa on stably transfected IIA1.6 cells (human) (P12318 34-317): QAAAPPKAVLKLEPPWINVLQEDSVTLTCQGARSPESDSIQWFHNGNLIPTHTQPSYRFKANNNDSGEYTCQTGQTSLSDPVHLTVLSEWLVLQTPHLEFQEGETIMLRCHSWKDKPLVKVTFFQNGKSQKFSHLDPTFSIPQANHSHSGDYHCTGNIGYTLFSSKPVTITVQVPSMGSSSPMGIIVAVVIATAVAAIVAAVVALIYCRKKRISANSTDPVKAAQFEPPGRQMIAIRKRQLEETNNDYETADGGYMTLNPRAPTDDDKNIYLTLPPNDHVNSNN

Substance: TAG34, anti-human OX40L monoclonal antibody
- IC50 (read off the curve) [5]: 1 µg/mL
- MFI [6]: 30.8 MFI
- MFI [7]: 9.44 MFI
- MFI [8]: 25.3 MFI
- MFI [9]: 14.9 MFI
- MFI [10]: 31.8 MFI
- IC50 [11]: 7 nM
- Kd [12]: 0.375 nM
- koff [12]: 3.32e-05 s⁻¹
- kon [12]: 88400 M⁻¹ s⁻¹
- IC50, IL-2 release of PHA-activated PBL co-stimulated with K562 OX40L cells [13]: 70 nM
- MFI [14]: 7.39 MFI
- MFI [15]: 31.6 MFI
- EC50 (read off the curve) [16]: 2 µg/mL
- MFI [17]: 8.97 MFI

Substance: HuMab antibody directed against Keyhole Limpet Hemocyanin (alpha-KLH)
- Bmax (OD405) [3]: 3.31 OD405
- EC50 [18]: 2.57 µg/mL
- MFI [19]: 4.74 MFI
- C3c deposition ELISA, Bmax (OD405) [4]: 2.63 OD405
- C3c deposition ELISA, EC50 [4]: 2.16 µg/mL
- MFI [20]: 4.76 MFI

The next lines start with the values.

- Bmax (MFI) [1]: 419 MFI
- Bmax (MFI) [2]: 537 MFI
Substance: human IgG3 (The Binding Site), control antibody

- Bmax (OD405) [3]: 0.353 OD405
- C3c deposition ELISA, Bmax (OD405) [4]: 0.095 OD405
Substance: human IgG4 (The Binding Site), control antibody

- Bmax (OD405) [3]: 2.69 OD405
- EC50 [18]: 4.17 µg/mL
- C3c deposition ELISA, Bmax (OD405) [4]: 2.54 OD405
- C3c deposition ELISA, EC50 [4]: 5.45 µg/mL
Substance: Human IgG1 (The Binding Site), control antibody
